Results: patent publication US20230285514A1, “STAPLED LACTAM CO-AGONISTS OF THE GLUCAGON AND GLP-1 RECEPTORS” (Merck Sharp & Dohme LLC, priority 2019, published 2023)
*1 amine or outer side, *2 acyl side, *3 side chain or, on linkers, in order; H or OH if unused. Where a SMILES comes first, the peptide text is derived from it. Bridges are numbered along the chain shown (N, C = ends). Where no end group is shown, it is not given here. Side-chain parts run from the residue outwards. [ ]: non-standard residue; d: D form. The star is where a group is joined. γGlu = O=C(O)[C@H](CCC(=O)[*:2])N[*:1]; Met(O2) = CS(=O)(=O)CC[C@H](N)C(=O)O; Palmitoyl = CCCCCCCCCCCCCCCC(=O)*; Nle = CCCC[C@H](N)C(=O)O; Ac4c = NC1(C(=O)O)CCC1; Aib = CC(C)(N)C(=O)O

B1: Peptide SEQ ID No. 10 (TP706) (peptide)
peptide: H[dS]QGTFTSDKSKYLDKRAAEDFVQWLLDT-NH2
modifications: lactam 16-20; not fully specified (residue 10); printed as HsQGTFTSDK(γEγEC16)SKYLDK*RAAE*DFVQWLLDT-NH2
B2: TP707 (peptide)
peptide: H[dS]QGTFTSDKSKYLDARAAKDFVEWLLDT-NH2
modifications: lactam 20-24; not fully specified (residue 10); printed as HsQGTFTSDK(γEγEC16)SKYLDARAAK*DFVE*WLLDT-NH2
B3: TP710 (peptide)
peptide: H[dS]QGTFTSDKSKYLDAKAAQEFVQWLLDT-NH2
modifications: lactam 17-21; not fully specified (residue 10); printed as HsQGTFTSDK(γEγEC16)SKYLDAK*AAQE*FVQWLLDT-NH2
B4: TP834 (peptide)
peptide: H[dS]QGTFTSDKSKYLDARAAQDFVKWLLET-NH2
modifications: lactam 24-28; not fully specified (residue 10); printed as HsQGTFTSDK(γEγEC16)SKYLDARAAQDFVK*WLLE*T-NH2
B5: TP836 (peptide)
peptide: H[Aib]QGTFTSDKSKYLDKRAAEDFVQWL[Nle]DT-NH2
modifications: lactam 16-20; not fully specified (residue 10); printed as HUQGTFTSDK(γEγEC16)SKYLDK*RAAE*DFVQWL-Nle-DT-NH2
B6: TP838 (peptide)
peptide: H[Aib]QGTFTSDKSKYLD[Aib]RAAKDFVEWL[Nle]DT-NH2
modifications: lactam 20-24; not fully specified (residue 10); printed as HUQGTFTSDK(γEγEC16)SKYLDURAAK*DFVE*WL-Nle-DT-NH2
B7: TP840 (peptide)
peptide: H[Aib]QGTFTSDKSKYLD[Aib]KAAQEFVQWL[Nle]DT-NH2
modifications: lactam 17-21; not fully specified (residue 10); printed as HUQGTFTSDK(γEγEC16)SKYLDUK*AAQE*FVQWL-Nle-DT-NH2
B8: TP842 (peptide)
peptide: H[Aib]QGTFTSDKSKYLD[Aib]RAAQDFVKWL[Nle]ET-NH2
modifications: lactam 24-28; not fully specified (residue 10); printed as HUQGTFTSDK(γEγEC16)SKYLDURAAQDFVK*WL-Nle-E*T-NH2
B9: TP844 (peptide)
peptide: H[Aib]QGTFTSDKSKYLDKRAAEDFVQWL[Met(O2)]DTK(γGlu)-NH2
modifications: lactam 16-20; not fully specified (residue 10); printed as HUQGTFTSDK(γEγEC16)SKYLDK*RAAE*DFVQWL2DTKγE-NH2
B10: TP848 (peptide)
peptide: H[Aib]QGTFTSDKSKYLD[Aib]KAAQEFVQWL[Met(O2)]DTK(γGlu)-NH2
modifications: lactam 17-21; not fully specified (residue 10); printed as HUQGTFTSDK(γEγEC16)SKYLDUK*AAQE*FVQWL2DTKγE-NH2
B11: TP850 (peptide)
peptide: H[Aib]QGTFTSDKSKYLD[Aib]RAAQDFVKWL[Met(O2)]ETK(γGlu)-NH2
modifications: lactam 24-28; not fully specified (residue 10); printed as HUQGTFTSDK(γEγEC16)SKYLDURAAQDFVK*WL2E*TKγE-NH2
B12: TP484 (peptide)
peptide: HXQGTFTSDXSKYLDERAAEDFVKWLLDT
modifications: s = D-Serine at 2; K10 conjugated to γEγE-C16 fatty acid; E*20 and K*24 cyclized to form a lactam containing ring; C-terminal amide
B13: TP846 (peptide)
peptide: H[Aib]QGTFTSDKSKYLD[Aib]RAAKDFVEWL[Met(O2)]DTK(γGlu)-NH2
modifications: lactam 20-24; not fully specified (residue 10); printed as HUQGTFTSDK(γEγEC16)SKYLDURAAK*DFVE*WL2DTKγE-NH2
B14: TP485 (peptide)
peptide: H[dS]QGTFTSDKSKYLDERAAKDFVEWLLDT-NH2
modifications: lactam 20-24; not fully specified (residue 10); printed as HsQGTFTSDK(γEγEC16)SKYLDERAAK*DFVE*WLLDT-NH2
B15: TP486 (peptide)
peptide: H[Aib]QGTFTSDKSKYLD[Aib]RAAQDFVEWLMKTK(γGlu)-NH2
modifications: lactam 24-28; not fully specified (residue 10); printed as HUQGTFTSDK(γEγEC16)SKYLDURAAQDFVE*WLMK*TKγE-NH2

These molecules were tested against human Glucagon receptor (GCGR) (human, UniProt P47871) (assay: cell-based or functional assay). Settings: not given.

Row | Molecule | GCGR EC50 human (nM), cAMP activity assay
1 | H[dS]QGTFTSEK([γGlu-γGlu-C16 fatty acid])SKKLD[Aib]RAAQDFVQWLLATK(γGlu)-NH2 (lactam 9-13) [TP115] | 0.81 nM
2 | B1 | 0.089 nM
3 | B2 | 0.1 nM
4 | B3 | 0.06 nM
5 | B4 | 0.077 nM
6 | B5 | 0.281 nM
7 | B6 | 0.675 nM
8 | B7 | 0.212 nM
9 | B8 | 0.248 nM
10 | B9 | 0.046 nM
11 | B10 | 0.079 nM
12 | B11 | 0.034 nM
13 | B12 | 0.04 nM
14 | H[Aib]QGTFTSDKSKYLD[Ac4c]KAAQEFVQWL[Met(O2)]DTK(γGlu)-NH2 (lactam 17-21; not fully specified (residue 10)) [TP857] | 0.092 nM
15 | H[Aib]QGTFTSDKSKYLD[Ac4c]RAAKDFVEWL[Met(O2)]DTK(γGlu)-NH2 (lactam 20-24; not fully specified (residue 10)) [TP859] | 0.108 nM
16 | H[Aib]QGTFTSDKSKYLD[Ac4c]RAAQDFVKWL[Met(O2)]ETK(γGlu)-NH2 (lactam 24-28; not fully specified (residue 10)) [TP861] | 0.928 nM
17 | B13 | 0.176 nM
18 | B14 | 0.05 nM
19 | B15 | 0.06 nM

These molecules were tested against human GLP-1 receptor (GLP1R) (human, UniProt P43220) (assay: cell-based or functional assay). Settings: not given.

Row | Molecule | GLP1R EC50 human (nM), cAMP activity assay
20 | H[dS]QGTFTSEK([γGlu-γGlu-C16 fatty acid])SKKLD[Aib]RAAQDFVQWLLATK(γGlu)-NH2 (lactam 9-13) [TP115] | 1.03 nM
21 | B1 | 0.107 nM
22 | B2 | 0.17 nM
23 | B3 | 0.07 nM
24 | B4 | 0.137 nM
25 | B5 | 0.198 nM
26 | B6 | 0.259 nM
27 | B7 | 0.17 nM
28 | B8 | 0.237 nM
29 | B9 | 0.022 nM
30 | B10 | 0.044 nM
31 | B11 | 0.033 nM
32 | B12 | 0.12 nM
33 | H[Aib]QGTFTSDKSKYLD[Ac4c]KAAQEFVQWL[Met(O2)]DTK(γGlu)-NH2 (lactam 17-21; not fully specified (residue 10)) [TP857] | 0.038 nM
34 | H[Aib]QGTFTSDKSKYLD[Ac4c]RAAKDFVEWL[Met(O2)]DTK(γGlu)-NH2 (lactam 20-24; not fully specified (residue 10)) [TP859] | 0.043 nM
35 | H[Aib]QGTFTSDKSKYLD[Ac4c]RAAQDFVKWL[Met(O2)]ETK(γGlu)-NH2 (lactam 24-28; not fully specified (residue 10)) [TP861] | 0.056 nM
36 | B13 | 0.147 nM
37 | B14 | 0.14 nM
38 | B15 | 0.29 nM

The molecules below were run against T1, human GCGR (Homo sapiens, UniProt P47871) (assay: cAMP activity assay, cells expressing human GCGR). Settings: ratio of human GCGR EC50 to human GLP1R EC50.
T1 construct: expressed in transfected cells
T1 sequence (P47871 26-477): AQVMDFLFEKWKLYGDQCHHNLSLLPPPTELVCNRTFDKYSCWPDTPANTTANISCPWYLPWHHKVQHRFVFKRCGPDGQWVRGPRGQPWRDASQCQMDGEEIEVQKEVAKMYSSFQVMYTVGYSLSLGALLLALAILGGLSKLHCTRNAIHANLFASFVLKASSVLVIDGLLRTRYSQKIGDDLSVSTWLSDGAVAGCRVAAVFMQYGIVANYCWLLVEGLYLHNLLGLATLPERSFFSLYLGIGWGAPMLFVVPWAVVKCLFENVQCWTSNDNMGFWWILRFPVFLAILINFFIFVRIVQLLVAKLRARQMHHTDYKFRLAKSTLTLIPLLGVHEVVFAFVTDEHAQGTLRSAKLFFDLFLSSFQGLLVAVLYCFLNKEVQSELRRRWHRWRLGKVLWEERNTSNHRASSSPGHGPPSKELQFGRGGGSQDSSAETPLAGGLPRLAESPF
Type: cell-based
Description: Activity of the peptides at the Glucagon receptor (GCGR) and GLP-1 receptor (GLP1R) was measured in a cAMP activity assay. Peptides were dissolved in 100% DMSO and serially diluted to generate 10 point titrations. The peptide solutions were then transferred into 384-well assay plates (150 nL/well). Assay ready frozen cells expressing human GLP1R or human GCGR were suspended in growth media consisting of DMEM medium (GIBCO), 10% FBS (GIBCO), 1×NEAA(GIBCO), 1×P/S (GIBCO), 10 ug/ml Blasticidin (GIBCO) and 200 μg/mL Hygromycin (GIBCO). […] The cell suspensions (15 μL) were then added to the assay plates containing the peptide solutions (30,000 cells/well for human GCGR; 10,000 cells/well for human GLP1R). […] Production of cAMP was determined using […] kits (DiscoverX) following manufacturer protocol. The plates were incubated for overnight at room temperature in the dark. Luminescence was measured using an EnVision Multilabel plate reader (Perkin Elmer). Native GLP-1 and Glucagon (Bachem) are used as control peptides.

Row | Molecule | hGCGR/hGLPIR (hTone)
39 | CCCCCCCCCCCCCCCC(=O)N[C@@H](CCC(=O)N[C@@H](CCC(=O)NCCCC[C@H](NC(=O)[C@H](CC(=O)O)NC(=O)[C@H](CO)NC(=O)[C@@H](NC(=O)[C@H](Cc1ccccc1)NC(=O)[C@@H](NC(=O)CNC(=O)[C@H](CCC(N)=O)NC(=O)[C@@H](CO)NC(=O)[C@@H](N)Cc1c[nH]cn1)[C@@H](C)O)[C@@H](C)O)C(=O)N[C@@H](CO)C(=O)N[C@@H](CCCCN)C(=O)N[C@@H](Cc1ccc(O)cc1)C(=O)N[C@@H](CC(C)C)C(=O)N[C@@H](CC(=O)O)C(=O)N[C@@H](CCC(=O)O)C(=O)N[C@@H](CCCNC(=N)N)C(=O)N[C@@H](C)C(=O)N[C@@H](C)C(=O)N[C@H]1CCC(=O)NCCCC[C@@H](C(=O)N[C@@H](Cc2c[nH]c3ccccc23)C(=O)N[C@@H](CC(C)C)C(=O)N[C@@H](CC(C)C)C(=O)N[C@@H](CC(=O)O)C(=O)N[C@H](C(N)=O)[C@@H](C)O)NC(=O)[C@H](C(C)C)NC(=O)[C@H](Cc2ccccc2)NC(=O)[C@H](CC(=O)O)NC1=O)C(=O)O)C(=O)O [SEQ ID NO: 7] (H-H[dS]QGTFTSDK([γGlu-γGlu-Palmitoyl])SKYLDERAAEDFVKWLLDT-NH2; lactam 20-24; N-terminus assumed) | 1.05
